The values that follow come from patent US20110301120A1, “USE OF A CHITOSAN POLYMER FOR HEPARIN NEUTRALIZATION” (UNIWERSYTET JAGIELLONSKI, priority 2009, published 2011).

For data set [1] the following is noted: fast injection, dogs; cited from earlier work.
The conditions of data set [2]: if not neutralized or removed from the bloodstream; cited from earlier work.
A short description of data set [3]: Interaction of heparin with cationically-modified chitosan at pH 7.4 (Azure A method). The class given is binding. Here is the method: The concentration of in solution was determined spectrophotometrically using Azure A. 0.9 ml of proper buffer was added to 0.1 ml of heparin solution, followed by addition of 1.0 ml of Azure A solution at 8.0·10^−5 M and the absorption spectrum of the obtained solution was measured. The concentration of heparin was determined on the basis of the intensity of absorption band at 630 nm, which corresponds to monomeric molecules of Azure A. The concentration of free heparin after addition of chitosan was determined by mixing at defined proportions of chitosan solutions in acetic acid. After 10 minutes of energetic shaking the mixtures obtained were centrifuged at 3000 rpm in order to separate the insoluble complex. The concentration of free heparin was determined in the supernatant.
The interaction of modified polymers with heparin in the aqueous solution at pH 7.4 was studied (FIG. 2). By measuring heparin concentration with Azure A method it was shown that cationically-modified chitosan effectively complexes free heparin in solution at pH 7.4.
The efficiency of heparin complexation by both polymers obtained was compared with the efficiency of protamine, a heparin-reversal agent commonly used in medicine (Table 1).

Data set [4] in a line: Dynamic light scattering: size of polymer objects and of their complexes with heparin. The following applies: PBS. The data set is classed as physicochemical. The protocol: The UV spectra were recorded using a diode-array HP 8452A spectrophotometer in quartz cuvettes with 1 cm optical path. The microscopic images were obtained using Nikon TE-2000 fluorescence microscope. The size of aggregates in suspensions was determined using a Zetasizer Nano ZS instrument from Malvern Instruments Ltd.
Using dynamic light scattering technique the size of objects formed by protamine and ChGl1 in the aqueous solution at pH 7.4 was measured (FIG. 3). The solutions of polymers were prepared in the PBS buffer. The heparin-protamine and heparin-ChGl complexes were obtained by mixing the respective solutions at the volume ratio corresponding to the minimum amount of the polycation needed to completely bind heparin in the solution.
For such mixtures the size and polydispersity of particles were measured.

The mark [5] stands for this setting: minimum amount of polycation needed to completely bind heparin.

As for protamine, the hemodynamic effect entry in data set [1] is on record as “severe hypotension”. In data set [2], the “patients with adverse effects” value is reported as “about 10%”. The “Mass required to bind 1 mg of heparin in PBS buffer at pH 7.4” value in data set [3] is given as 1.2661 mg. Also, the “size (diameter) of objects formed by the polymer” value in data set [4] (pH 7.4, without heparin) is recorded as “about 4 nm”. Further, in data set [4] (setting [5]), the “diameter of aggregates with heparin” value is reported as ≤ 10 μm and the “polydispersity of complexes with heparin” value is given as “very polydisperse”.
